# B1: Variant 10014 (antibody, name in Kabat numbering, V domains shown)
# VH: EVQLVESGGGLVQPGGSLRLSCAASGFTFADYTMDWVRQAPGKGLEWVADVNPNSGGSIYNQRFKGRFTLSVDRSKNTLYLQMNSLRAEDTAVYYCARNLGPSFYFDYWGQGTLVTVSS
# VL: DIQMTQSPSSLSASVGDRVTITCKASQDVSIGVAWYQQKPGKAPKLLIYSASYRYTGVPSRFSGSGSGTDFTLTISSLQPEDFATYYCQQYYIYPATFGQGTKVEIK
# notes: also called v10014; OAA variant
# Experiments:
# Recombinant human HER2 [1] = biological target: T1, Recombinant human HER2 (human, UniProt P04626 23-652); test: SPR as in Example 12, one-armed antibody, pre-SEC, against v10013
# T1 construct: extracellular domain
# Recombinant human HER2 [2] = biological target: T1, Recombinant human HER2; test: SPR as in Example 12, one-armed antibody, post-SEC, against v10013
binder,measurement,setting,value
B1,Fold wrt WT (KD(WT)/KD(mut)),Recombinant human HER2 [1],8.1 fold
same,Fold wrt WT (KD(WT)/KD(mut)),Recombinant human HER2 [2],7 fold

# From patent publication US20200297862A1 (Zymeworks, published 2020)
